The source of these data is patent publication US20130316376A1 (SPIBER TECHNOLOGIES, published 2013).

Assay [1] deals with T1, albumin from rabbit serum (rabbit, UniProt P49065 25-608).
T1 construct: mature; Native serum protein; the form follows from the source (serum); also called albumin (~70 kDa)
Kind of assay: fibers incubated with rabbit serum, low pH elution, non-reducing SDS-PAGE.

Assay [2] deals with T2, albumin from human blood plasma (human, UniProt P02768 25-609).
T2 construct: mature; Native plasma protein; also called human albumin
Kind of assay: films incubated with human blood plasma, low pH elution, non-reducing SDS-PAGE.

T1 sequence (P49065 25-608): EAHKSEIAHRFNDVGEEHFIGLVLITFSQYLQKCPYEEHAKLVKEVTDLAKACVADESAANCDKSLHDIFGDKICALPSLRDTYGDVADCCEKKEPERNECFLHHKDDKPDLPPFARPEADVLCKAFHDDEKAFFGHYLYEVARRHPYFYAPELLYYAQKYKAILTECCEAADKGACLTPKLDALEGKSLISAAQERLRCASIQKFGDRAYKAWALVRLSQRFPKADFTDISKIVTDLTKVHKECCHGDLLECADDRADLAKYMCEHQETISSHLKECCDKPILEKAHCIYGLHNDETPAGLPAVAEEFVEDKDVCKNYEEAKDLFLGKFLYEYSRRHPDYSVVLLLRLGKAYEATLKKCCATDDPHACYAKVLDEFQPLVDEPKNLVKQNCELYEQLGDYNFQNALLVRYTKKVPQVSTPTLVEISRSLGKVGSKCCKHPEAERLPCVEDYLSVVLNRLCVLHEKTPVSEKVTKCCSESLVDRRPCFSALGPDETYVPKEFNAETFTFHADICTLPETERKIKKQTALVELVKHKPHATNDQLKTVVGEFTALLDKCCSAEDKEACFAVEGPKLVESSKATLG

B1: Rep4CT (Protease 3C cleavage product of His6ZQGRep4CT) (other)
chain: GQGGYGGLGQGGYGQGAGSSAAAAAAAAAAAAGGQGGQGQGGYGQGSGGSAAAAAAAAAAAAAAAGRGQGGYGQGSGGNAAAAAAAAAAAAAAAGQGGQGGYGRQSQGAGSAAAAAAAAAAAAAAGSGQGGYGGQGQGGYGQSSASASAAASAASTVANSVSRLSSPSAVSRVSSAVSSLVSNGQVNMAALPNIISNISSSVSASAPGASGCEVIVQALLEVITALVQIVSSSSVGYINPSAVNQITNVVANAMAQVMG
notes: made by cleaving His6ZQGRep4CT; also called GP-Rep4CT
As for B1, in assay [1], the binding result is “binds”.

B2: His6AbdQGRep4CT (designed binder)
chain: MGSSGHHHHHHMLAEAKVLANRELDKYGVSDYYKNLINNAKTVEGVKALIDEILAALPLEALFQGPNSGQGGYGGLGQGGYGQGAGSSAAAAAAAAAAAAGGQGGQGQGGYGQGSGGSAAAAAAAAAAAAAAAGRGQGGYGQGSGGNAAAAAAAAAAAAAAAGQGGQGGYGRQSQGAGSAAAAAAAAAAAAAAGSGQGGYGGQGQGGYGQSSASASAAASAASTVANSVSRLSSPSAVSRVSSAVSSLVSNGQVNMAALPNIISNISSSVSASAPGASGCEVIVQALLEVITALVQIVSSSSVGYINPSAVNQITNVVANAMAQVMG
notes: tested as films and fibers; also called Abd-Rep4CT; HisAbdQG4RepCT
As for B2, the binding result in assay [2] was “binds”.
